From paper PMC4550792 come the findings set out here.

Experiment [1] addresses Gαs-Rluc8 (UniProt P63092). The experiment can be described thus: FRET or BRET; BRET in live HEK 293 cells transiently co-expressing Gαs-Rluc8 with Venus-Gγ2 or Venus-Gβ1 in the presence of hFSHR or hLHR; read every 0.5 s before and after injection of 10 nM hFSH or hCG; 96-well format. Background: In BRET a luciferase serves as donor, and the signal depends on an acceptor being close.

Experiment [2] has as its target hLHR-Rluc8 (human) (UniProt P22888).
Experiment [3] addresses human luteinizing hormone receptor (wildtype) (human) (UniProt P22888).
In experiment [4] the target is FSHR/AVPR2-CT chimera.

Sequence of UniProt P63092 (P63092 whole entry): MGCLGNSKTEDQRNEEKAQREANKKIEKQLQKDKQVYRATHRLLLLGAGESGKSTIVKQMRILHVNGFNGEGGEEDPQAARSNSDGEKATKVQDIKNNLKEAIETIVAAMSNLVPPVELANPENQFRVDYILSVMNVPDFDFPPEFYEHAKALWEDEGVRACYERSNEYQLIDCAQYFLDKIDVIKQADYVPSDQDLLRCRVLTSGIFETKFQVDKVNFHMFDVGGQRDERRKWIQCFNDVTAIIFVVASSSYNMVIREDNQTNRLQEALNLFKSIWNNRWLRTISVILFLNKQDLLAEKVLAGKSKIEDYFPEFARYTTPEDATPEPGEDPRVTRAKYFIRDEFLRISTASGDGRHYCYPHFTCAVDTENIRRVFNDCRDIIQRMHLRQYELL
Sequence of Venus-Gγ2 (P59768 whole entry): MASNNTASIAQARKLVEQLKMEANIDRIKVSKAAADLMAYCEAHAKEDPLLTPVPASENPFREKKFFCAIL

For “Venus-Gγ2 (from UniProt P59768 1-71) (natural protein)”, the t1/2 of the hFSH-induced BRET decrease (with hFSHR) in experiment [1] stood at 16.8 s.

“human chorionic gonadotropin (from UniProt P01215 25-116; P0DN86 21-165) (ligand)” registered a receptor internalization, decrease of BRET between hLHR-Rluc8 and the plasma membrane marker Venus-KRas in HEK 293 cells; EC50 of hCG in experiment [2] of 4.9 nM. For the same substance, in experiment [3], the cAMP accumulation, HTRF assay in HEK 293 cells expressing hLHR; EC50 of hCG worked out at 0.0019 nM and the cAMP production, BRET sensor CAMYEL in HEK 293 cells expressing hLHR; EC50 of hCG is 0.0035 nM.

In experiment [4], “β-arrestin 2-TEV fusion protein (from UniProt P32121 1-409) (natural protein)” yielded a TANGO assay (tTA-dependent firefly luciferase reporter in HTLA cells, 14–20 h with increasing hFSH); EC50 of hFSH of 5.7 nM.
